# Source: US20190338038A1 (CELLERANT THERAPEUTICS, published 2019)
# T1: human interleukin 1 receptor accessory protein, membrane-bound form on cells (human, UniProt Q9NPH3 21-570)
# T1 sequence: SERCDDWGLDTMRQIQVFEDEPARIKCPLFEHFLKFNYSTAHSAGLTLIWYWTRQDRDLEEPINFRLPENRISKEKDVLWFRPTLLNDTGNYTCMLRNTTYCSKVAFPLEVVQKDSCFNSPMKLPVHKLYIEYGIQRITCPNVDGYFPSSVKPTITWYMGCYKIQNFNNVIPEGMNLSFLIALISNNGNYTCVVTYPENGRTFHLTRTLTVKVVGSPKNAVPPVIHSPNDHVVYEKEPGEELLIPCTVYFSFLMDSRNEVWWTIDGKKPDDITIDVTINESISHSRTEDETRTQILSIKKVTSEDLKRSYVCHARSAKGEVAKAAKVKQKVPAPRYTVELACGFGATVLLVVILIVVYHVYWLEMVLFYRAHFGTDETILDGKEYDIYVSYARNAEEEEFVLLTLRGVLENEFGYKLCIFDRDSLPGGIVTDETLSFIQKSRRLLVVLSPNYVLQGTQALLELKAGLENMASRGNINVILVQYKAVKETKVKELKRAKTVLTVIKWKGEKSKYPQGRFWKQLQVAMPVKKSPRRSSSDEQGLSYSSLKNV
# T2: recombinant mouse IL1-RAP (mouse, UniProt Q61730 21-359, limits assumed)
# T2 sequence (looked up): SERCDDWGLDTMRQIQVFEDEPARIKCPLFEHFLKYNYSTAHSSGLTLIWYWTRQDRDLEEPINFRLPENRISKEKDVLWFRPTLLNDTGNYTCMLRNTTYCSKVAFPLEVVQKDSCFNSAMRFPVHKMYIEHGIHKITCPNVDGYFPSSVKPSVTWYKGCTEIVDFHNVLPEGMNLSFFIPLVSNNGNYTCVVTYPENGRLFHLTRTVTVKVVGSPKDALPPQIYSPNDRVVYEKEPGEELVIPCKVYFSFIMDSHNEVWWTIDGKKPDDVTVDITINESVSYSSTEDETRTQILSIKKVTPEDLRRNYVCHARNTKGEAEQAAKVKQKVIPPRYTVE
# B1: anti-IL1-RAP antibody clone 46.1D2 (antibody, V domains shown)
# VH: QVQLQQSGPELVKPGASVKISCKASGYGFSSSWMNWVKQRPGKGLEWIGRIYPGDGNTNYYGEFKGKATLTADKSSSTAYMQLNSLTSEDSAVYFCARNDGYPAWFTYWGQGTLVTVSA
# VL: DIQMTQTTSSLSASLGDRVTISCSASQGISNYLNWYQQKPDGSVKLLIYYTSTLHSGVPSRFSGSGSGTDYSLTISNLEPEDIATYYCQQYSYLPWTFGGGTKLEIK
# notes: Mouse monoclonal antibody
# B2: anti-IL1-RAP antibody clone 50.3G7 (antibody, V domains shown)
# VH: QIQLVQSGPELKKPGETVKISCKASGYTFTNYGMHWVKQSPGEGLKWMGWINTYTGEPTYADDFKGRFGFSLETSASSAYLQINDLKNEDMATYFCARYYGNFDYWGQGTTLTVSS
# VL: DIVLTQSPATLSVTPGDSVSLSCRASQSISNNLHWYQQKSHESPRLLIKYASQSISGIPSRFSGSGSGTDFTLSINSVETEDFGVYFCQQSHNWPHTFGGGTKLEIKR
# notes: Mouse monoclonal antibody
# B3: 42.3G6 (antibody, V domains shown)
# VH: QIQLVQSGPELKKPGETVKISCKASGYTFTDYSMHWVKQAPEKGLKWMGWINTETGEPTYADDFKGRFAFSLETSASTAYLQINNLKNEDTATYFCARGSFPWFTYWGQGTLVTVSA
# VL: DIVMTQAAFSNPVTLGTSASISCRSSKSLLHSNGITYLYWYLQKPGQSPQLLIYQMSNLASGVPDRFSSSGSGTDFTLRISRVEAEDVGVYYCAQNLELPFTFGSGTKLEIK
# notes: also called anti-IL1-RAP antibody clone 42.3G6
# B4: H54.9D7 HC1 / H54.9D7 LC1 (antibody, V domains shown)
# VH: QVQLVQSGAEVKKPGASVKVSCKASGYIFITYWMNWVRQAPGQGLEWMGQIFPASGTTYYAQKFQGRVTMTRDTSTSTVYMELSSLRSEDTAVYYCARTDFYRYDGGYALDYWGQGTLVTVSS
# VL: DIQMTQSPSSLSASVGDRVTITCRASQSVSTSGYSSMHWYQQKPGKAPKLLIYYASDLESGVPSRFSGSGSGTDFTLTISSLQPEDFATYYCHHSWGIPMYTFGQGTKLEIKR
# B5: h54.9D7 HC1 / h54.9D7 LC2 (antibody, V domains shown)
# VH: QVQLVQSGAEVKKPGASVKVSCKASGYIFITYWMNWVRQAPGQGLEWMGQIFPASGTTYYAQKFQGRVTMTRDTSTSTVYMELSSLRSEDTAVYYCARTDFYRYDGGYALDYWGQGTLVTVSS
# VL: DIQLTQSPSSLSASVGDRATITCRASQSVSTSGYSSMHWYQQKPGKAPKLLIYYASDLESGVPSRFSGSGSGTDFTLTISSVQPEDFATYYCHHSWGIPMYTFGQGTKLEIKR
# B6: h54.9D7 HC2 / h54.9D7 LC2 (antibody, V domains shown)
# VH: QVQLVQSGAEVKKPGASVKVSCKASGYIFITYWMNWVRQAPGQGLEWVGQIFPASGTTYYAQKFQGRVTMTVDTSTSTVYMELSSLRSEDTAVYYCARTDFYRYDGGYALDYWGQGTLVTVSS
# VL: DIQLTQSPSSLSASVGDRATITCRASQSVSTSGYSSMHWYQQKPGKAPKLLIYYASDLESGVPSRFSGSGSGTDFTLTISSVQPEDFATYYCHHSWGIPMYTFGQGTKLEIKR
# B7: h54.9D7 HC3 / h54.9D7 LC2 (antibody, V domains shown)
# VH: QVQLVQSGAEVKKPGASVKLSCKASGYIFITYWMNWVRQAPGQGLEWVGQIFPASGTTYYAQKFQGRATLTVDTSTSTAYMELSSLRSEDTAVYYCARTDFYRYDGGYALDYWGQGTLLTVSS
# VL: DIQLTQSPSSLSASVGDRATITCRASQSVSTSGYSSMHWYQQKPGKAPKLLIYYASDLESGVPSRFSGSGSGTDFTLTISSVQPEDFATYYCHHSWGIPMYTFGQGTKLEIKR
# B8: H54.9D7 HC3 / H54.9D7 LC1 (antibody, V domains shown)
# VH: QVQLVQSGAEVKKPGASVKLSCKASGYIFITYWMNWVRQAPGQGLEWVGQIFPASGTTYYAQKFQGRATLTVDTSTSTAYMELSSLRSEDTAVYYCARTDFYRYDGGYALDYWGQGTLLTVSS
# VL: DIQMTQSPSSLSASVGDRVTITCRASQSVSTSGYSSMHWYQQKPGKAPKLLIYYASDLESGVPSRFSGSGSGTDFTLTISSLQPEDFATYYCHHSWGIPMYTFGQGTKLEIKR
# B9: h54.9D7 HC2 / h54.9D7 LC1 (antibody, V domains shown)
# VH: QVQLVQSGAEVKKPGASVKVSCKASGYIFITYWMNWVRQAPGQGLEWVGQIFPASGTTYYAQKFQGRVTMTVDTSTSTVYMELSSLRSEDTAVYYCARTDFYRYDGGYALDYWGQGTLVTVSS
# VL: DIQMTQSPSSLSASVGDRVTITCRASQSVSTSGYSSMHWYQQKPGKAPKLLIYYASDLESGVPSRFSGSGSGTDFTLTISSLQPEDFATYYCHHSWGIPMYTFGQGTKLEIKR
# B10: Chi54.9D7 HC#1 / h54.9D7 LC1 (antibody, V domains shown)
# VH: HVQLQQSGPELVRPGASVKLSCKASGYIFITYWMNWVKQRPGQGLEWVGQIFPASGTTYYNELFEGKATLTVDTSSNTAYMHLTSLTSEDSAVYYCARTDFYRYDGGYALDYWGQGTSLTVSS
# VL: DIQMTQSPSSLSASVGDRVTITCRASQSVSTSGYSSMHWYQQKPGKAPKLLIYYASDLESGVPSRFSGSGSGTDFTLTISSLQPEDFATYYCHHSWGIPMYTFGQGTKLEIKR
# B11: 46.8G1 (antibody, V domains shown)
# VH: QVQLQQSGPELVKPGASVKISCTASGYAFSTSWMNWVKQRPGKGLEWIGRIYPGDGDSNYNGKFKGKATLTADKSSSTAYMQLSSLTSEDSAVYFCARRDYYGFFDVWGAGTTVTVSS
# VL: DIQMTQSPASLSVSVGETVTITCRASENIYSNLVWYQQKQGKSPQLLVYAATNLADGVPSRFSGSGSDTQYSLKINSLQSEDFGSYYCLHFWGPPYMYTFGGGTNLEMKR
# notes: also called anti-IL1-RAP antibody clone 46.8G1
# B12: anti-IL1-RAP antibody clone 54.15B5 (antibody, V domains shown)
# VH: KWSWWSLGGGLAKPGGSLKLSCTASGFTFTSYVMSWVRQSPEKRLEWVAEISRGGSHTYYSDTVTGRFTISRDNANNALYLEMSSVRSADTAMYFCTRAYGNSEMDFWGQGTSVTVSS
# VL: QIVLTQSPAIMSASPGEKVTMTCSASSSISYIHWYRQKPGTSPKRWIYDTSNLASGVPARFSGSGSGTSYSLTIINMEAEDAATYYCHQRTYYPLTFGGGTRLELK
# notes: Mouse monoclonal antibody
# B13: anti-IL1-RAP antibody clone 54.8H8 (antibody, V domains shown)
# VH: EVQLVESGGGLVKPGGSLKLSCAASGFSFSSYGMSWVRQSPEKRLEWVAEITSGGSHTYYPDTVTGRFTISRDNAKNTLYLEMSSLRSEDTAMYYCSRSYGNYVMDYWGQGTSVTVSS
# VL: QIVLTQSPAIMSASPGEKVTMTCSASSSVIYIYWFQQKPGSSPRLLIYDTSNLASGVPLRFSGSGSGTSYSLTISRMETEDVSTYYCQQWNSYPPTFGGGTKLEIK
# notes: Mouse monoclonal antibody
# B14: anti-IL1-RAP antibody clone 50.6C12 (antibody, V domains shown)
# VH: EVQLQQSGPELVKPGDSVKMSCKASGYTFTDYYMDWVKQSHGKSLEWIGYIYPHNGGTTYNQKFKGKATLTVDKSSSTAYMELHSLTSEDSAVYYCARSPFNYKDPMDWWGQGTSVTVSS
# VL: DIQMTQSPASLSASVGETVTITCRASGNIHNYLAWYQQKQGKSPHLLVYNAETLADGVPSRFSGSGSGTQYSLKINSLQPEDFGTYYCQHFWSTPWTFGGGTKLEIK
# notes: Mouse monoclonal antibody
# B15: anti-IL1-RAP antibody clone 42.1D3 (antibody, V domains shown)
# VH: QIQLVQSGPELKKPGETVNISCKASGYTFTDFSMHWVKQAPGKGLQWMGWINTETGEPTYADDFEARFAFSLATSANTAYLKINNLKNEDTATYFCARFFLHFDYWGQGTTLTVSS
# VL: DIVLTQSPATLSVTPGDSVSLSCRASQSINNDLHWYQQKSHESPRLLIKYASQSISGIPSRFSGSGSGTDFTLRINSVETEDFRMYFCQQSNNWPLTFGAGTKLEVK
# notes: Mouse monoclonal antibody
# B16: anti-IL1-RAP antibody clone 54.9E9 (antibody, V domains shown)
# VH: QIQLVQSGPELKKPGETVKISCKASSYTFTDYSMHWVKQAPGKGLKWMGWINTETGEPRYADDFKGRFAFSLETSASTAYLQINNLKNEDTATYFCARFLLHFDYWGQGTILTVSS
# VL: QIVLTQSPAIMSASPGEKVTMTCSASSSVSYMHWYQQKTGTSPKRLIYDTSKLASGVPARFSGSGSGTSYSLTISSMEAEDAATYYCHQRSYYPLTFGAGAKLELK
# notes: Mouse monoclonal antibody
# Tests used:
# [1] = biological target: T1, human interleukin 1 receptor accessory …; test: cell-based or functional assay
# [2] = biological target: T2, recombinant mouse IL1-RAP; test: FACS (GeoMean), bar series mIL1RAP
# [3] = biological target: human interleukin 1 receptor accessory protein, membrane-bound form on cells (human) (UniProt Q9NPH3); test: FACS on EOL-1 cells, FITC; antibody concentration not given
Binder,"% Inhibition at 10 ug/mL of IL-1β-induced NF-κB signaling, HEK-Blue IL-1β cells [1] [%]","IC50 of inhibition of IL-1β-induced NF-κB signaling, HEK-Blue IL-1β cells [1] [µg/mL]",binding result [2],MFI [3]
B1,69.2,0.13,no binding (tested: not given),–
B2,48,12.6,no binding (tested: not given),–
B3,–,–,no binding (tested: not given),–
B4,–,–,–,4.9
B5,–,–,–,5.14
B6,–,–,–,5.69
B7,–,–,–,5.49
B8,–,–,–,4.86
B9,–,–,–,5.25
B10,–,–,–,7.96
B11,–,–,no binding (tested: not given),–
B12,58.1,0.29,no binding (tested: not given),–
B13,50.8,2.05,no binding (tested: not given),–
B14,69,0.41,no binding (tested: not given),–
B15,59,7.99,no binding (tested: not given),–
B16,69.1,1.3,no binding (tested: not given),–
